In the supplement of paper PMC10567573:
± gives the standard deviation.

Assay: protein stability index of a GFP-peptide fusion (GPS, HEK-293T) (PSI 1-6); higher = more stable
[1] = treatment: DMSO, c terminus: a fixed tail appended
[2] = treatment: MLN4924 1 uM, 8 h, c terminus: a fixed tail appended
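Note: 24-mer peptide tiles fused after GFP, lentivirally expressed, FACS-sorted into six equal bins by GFP/DsRed ratio, decoded by Illumina sequencing, PSI is the read-weighted mean bin number.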

Sequence	protein stability index [1]	protein stability index [2]	protein stability index (treatment: DMSO, c terminus: native)	protein stability index (treatment: MLN4924 1 uM, 8 h, c terminus: native)
DFYRCGYCKNESGSRSNGMWAHSM [ATE1]	2.56 ± 0.59	2.2 ± 0.13		
DGDKNNDGRIDFDEFLKMMEGVQ [TNNC2]			4.63 ± 0.43	4.54 ± 0.42
DGKLRLLTKLLASKSKEEVSSLIS [FEM1C]	2.33 ± 0.28	1.92 ± 0.39		
DGMLYILGGEDGEKELISMECYDI [GAN]	2.05 ± 0.18	2.26 ± 0.42		
DIVEFVCKSGYHPTKSHSFRAMCQ [CFHR2]	2.49 ± 0.7	2.09 ± 0.18		
DKDDEEKPKIEDVGSDEEDDSGKD [HSP90AB1]	5.57 ± 0.34	5.54 ± 0.062		
DKEGHLVCRIGDWLQERYEIVGNL [CLK3]	2.8 ± 0.56	2.89 ± 0.47		
DKERAVLLQRRKRENMSDGDTSAT [KMT2E]	5.27 ± 0.062	5.39 ± 0.19		
DKLDGNELDLSLSDLNEVPVKELA [LRRC59]	5.26 ± 0.093	5.34 ± 0.33		
DKPLMPYMRYSRKVWDQVKASNPD [SMARCE1]	3.27 ± 0.53	3.44 ± 0.17		
DLALDLGPQSRELTLKVLRSSSCG [C2CD2L]	3.28 ± 0.18	3.62 ± 0.34		
DLEELSLGPRDAGTRGRLESAQAT [ARFIP2]	5.14 ± 0.083	5.06 ± 0.1		
DLSMKGGASTTSTTPSALSGEPPT [NOL4L]	5.16 ± 0.32	5.28 ± 0.28		
DNSTMGYMMAKKHLEINPDHPIVE [HSP90AB1]	4.21 ± 0.21	4.05 ± 0.28		
DNWDEKKLEEVVNKKHGEAEKKKP [ZC3H15]	5.48 ± 0.48	5.75 ± 0.25		
DPANCDYVIVSGAQRKEERWDMAD [YJU2B]	4.74 ± 0.3	4.63 ± 0.16		
DPDEEHLKKSSQVPRTEAPAPASS [PDLIM7]	5.39 ± 0.17	5.5 ± 0.25		
DPEDFEDAWKRPDALPGQSKRLAV [TLE6]	5.08 ± 0.18	4.83 ± 0.29		

Sequence	protein stability index [1]	protein stability index [2]	protein stability index (treatment: DMSO, c terminus: native)	protein stability index (treatment: MLN4924 1 uM, 8 h, c terminus: native)
DPLSLLDDSKFPIEDTPLVPVSFI [PCDHGA10]	2.85 ± 0.49	2.97 ± 0.3		
DPSIFTAQPNTMLGRMFGSGREHN [BTBD10]	3.95 ± 0.27	3.79 ± 0.28		
DPVVNGERSGCALTDAVAPGNKGR [TCF25]	5.21 ± 0.21	5.32 ± 0.21		
DRGDYYLEGYRDNAYKDLAWKHGN [PCMTD1]	3.18 ± 0.2	3.29 ± 0.19		
DSKIVVPPLPGKALKRQLPFRGDE [SNX12]	4.35 ± 0.21	4.36 ± 0.1		
DSLLVVLDMDEGTLSFIVDGQYLG [SPSB4]	2.52 ± 0.53	2.6 ± 0.69		
DSPSRSPSKVEVTEKTTTVLSESS [C2CD2L]	5.59 ± 0.24	5.38 ± 0.19		
DSVPFHLGWNSTERSLRLQARYHD [MYORG]	3.59 ± 0.24	3.51 ± 0.17		
DTAEVYAAGKAEVVLGNIIKKKGW [KCNAB2]	3.71 ± 0.21	3.86 ± 0.11		
DVKVGGSKYGIINLQSLKTPTLKV [DCAF4]	2.62 ± 0.2	2.65 ± 0.28		
DYIIRNTDRGNDNWLIKYDCPMDS [PI4K2A]	2.81 ± 0.25	2.88 ± 0.12		
DYPVQVAPLSNGLCCAFSTDGSVL [WSB1]	2.66 ± 0.27	2.96 ± 0.32		
DYPYSPPTFRFLTKMWHPNIYENG [UBE2R2]	2.21 ± 0.41	2.3 ± 0.13		
EAAGGDHETESTSDKETDIDDRYG [CDS1]	5.6 ± 0.09	5.62 ± 0.22		
EAASSSSTLVEVTLGEVPAAESPD [MAGEA3]	5.41 ± 0.15	5.49 ± 0.12		
EAPALPAPAAPMVSKGAESSRSSE [BRD3]	5.56 ± 0.32	5.73 ± 0.25		
EAQLSLIRDIRRRGKNKMAAQNCR [NFE2L1]	3.61 ± 0.35	3.58 ± 0.22		
EAQTSGKERLLLSAAVPAGQTYVD [CHIT1]	4.15 ± 0.41	4.3 ± 0.26		
